# Results published in paper PMC5515408, “Sequence-specific DNA binding by MYC/MAX to low-affinity non-E-box motifs”.
# B1: NE (dsDNA)
# DNA 1: CCGGCTGAAACGTTGTATTAATAG
# DNA 2: CTATTAATACAACGTTTCAGCCGG
# B2: NE-V1 (dsDNA)
# DNA 1: CCGGCTGATACGTTGTATTAATAG
# DNA 2: CTATTAATACAACGTATCAGCCGG
# B3: NE-V2 (dsDNA)
# DNA 1: CCGGCTGAGACGTTGTATTAATAG
# DNA 2: CTATTAATACAACGTCTCAGCCGG
# B4: NE-V3 (dsDNA)
# DNA 1: CCGGCTGATACGTAGTATTAATAG
# DNA 2: CTATTAATACTACGTATCAGCCGG
# B5: NE-V4 (dsDNA)
# DNA 1: CCGGCTGAAAGCTTGTATTAATAG
# DNA 2: CTATTAATACAAGCTTTCAGCCGG
# B6: E-V1 (dsDNA)
# DNA 1: CCGGCTGACACGTTGTATTAATAG
# DNA 2: CTATTAATACAACGTGTCAGCCGG
# B7: CME (dsDNA)
# DNA 1: CCGGCTGACACGTGGTATTAATAG
# DNA 2: CTATTAATACCACGTGTCAGCCGG
# B8: Ctrl (dsDNA)
# DNA 1: CCGGCTGATTAGCAGTATTAATAG
# DNA 2: CTATTAATACTGCTAATCAGCCGG
# How the values were obtained:
# [1] = target: T1, MYC (p64);MAX (p21), in MYC:MAX (human;human, UniProt P01106-1;P61244-2 1-439;1-151, |); test: EMSA competition; EMSA: 10 ul, 0.5 pmol probe, 80 ng poly(dA-dT):(dA-dT), 375 ng/ul BSA, 15 mM Tris-HCl pH 7.9, 100 mM KCl, 15% glycerol, 0.15 mM EDTA, 0.075% NP-40, 7.5 mM 2-mer; conditions: protein: recombinant;recombinant; tags: 6xHis;6xHis; copies: 1;1; label: 32P (Klenow fill-in with [alpha-32P]dGTP) as probe; annealed complementary oligos; probe Klenow-filled
# T1 sequence (P01106 16-454, chain 1 of 2): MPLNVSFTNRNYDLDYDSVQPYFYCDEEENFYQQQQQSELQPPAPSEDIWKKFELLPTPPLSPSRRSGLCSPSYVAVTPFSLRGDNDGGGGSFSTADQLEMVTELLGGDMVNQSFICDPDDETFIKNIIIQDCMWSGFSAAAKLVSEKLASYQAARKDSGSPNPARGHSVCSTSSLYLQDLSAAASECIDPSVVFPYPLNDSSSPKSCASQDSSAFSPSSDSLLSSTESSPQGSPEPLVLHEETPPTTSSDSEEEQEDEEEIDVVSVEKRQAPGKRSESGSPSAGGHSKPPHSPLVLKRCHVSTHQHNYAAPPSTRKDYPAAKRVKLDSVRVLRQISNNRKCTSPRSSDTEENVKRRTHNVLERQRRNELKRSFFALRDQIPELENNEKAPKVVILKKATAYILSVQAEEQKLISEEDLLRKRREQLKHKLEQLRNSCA
# T1 sequence (P61244 other isoform, or with tags, fused parts or gaps |, chain 2 of 2): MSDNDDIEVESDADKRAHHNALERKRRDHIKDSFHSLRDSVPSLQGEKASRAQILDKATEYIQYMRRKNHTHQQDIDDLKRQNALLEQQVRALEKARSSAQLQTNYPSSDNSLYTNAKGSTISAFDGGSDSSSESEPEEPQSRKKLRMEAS
# [2] = target: T2, MAX:MAX (p21) (human, UniProt P61244-2 1-151); test: as above; conditions: protein: recombinant; tags: 6xHis; chain copies: 2; label: 32P (Klenow fill-in with [alpha-32P]dGTP) as probe; annealed complementary oligos; probe Klenow-filled
# T2 sequence (P61244 other isoform, or with tags, fused parts or gaps): as the sequence (P61244 other isoform, or with tags, fused parts or gaps |, chain 2 of 2) above
# [3] = target: T2, MAX:MAX (p21); test: competition; labeled CME probe; EMSA: 10 ul, 0.5 pmol probe, 80 ng poly(dA-dT):(dA-dT), 375 ng/ul BSA, 15 mM Tris-HCl pH 7.9, 100 mM KCl, 15% glycerol, 0.15 mM EDTA, 0.075% NP-40, 7.5 mM 2-mer; conditions: protein: recombinant; tags: 6xHis; chain copies: 2; annealed complementary oligos
# [4] = target: T2, MAX:MAX (p21); test: competition; labeled CME probe; stronger than NE; EMSA: 10 ul, 0.5 pmol probe, 80 ng poly(dA-dT):(dA-dT), 375 ng/ul BSA, 15 mM Tris-HCl pH 7.9, 100 mM KCl, 15% glycerol, 0.15 mM EDTA, 0.075% NP-40, 7.5 mM 2-mer; conditions: protein: recombinant; tags: 6xHis; chain copies: 2; annealed complementary oligos
# [5] = target: T1, MYC (p64);MAX (p21), in MYC:MAX; test: EMSA; EMSA: 10 ul, 0.5 pmol probe, 80 ng poly(dA-dT):(dA-dT), 375 ng/ul BSA, 15 mM Tris-HCl pH 7.9, 100 mM KCl, 15% glycerol, 0.15 mM EDTA, 0.075% NP-40, 7.5 mM 2-mer; conditions: protein: recombinant;recombinant; tags: 6xHis;6xHis; copies: 1;1; label: 32P (Klenow fill-in with [alpha-32P]dGTP) as probe; annealed complementary oligos; probe Klenow-filled
# [6] = target: T2, MAX:MAX (p21); test: as above; conditions: protein: recombinant; tags: 6xHis; chain copies: 2; label: 32P (Klenow fill-in with [alpha-32P]dGTP) as probe; annealed complementary oligos; probe Klenow-filled
binder,measurement,setting,value
B1,binding signal,[1],~20 fold lower affinity than CME
same,binding signal,[2],~33 fold lower affinity than CME
B2,binding result,[3],no binding
B3,binding result,[3],no binding
B4,binding result,[3],no binding
B5,binding result,[3],no binding
B6,binding result,[4],binds
B7,binding result,[5],binds
same,binding result,[6],binds
B8,binding result,[5],no binding
same,binding result,[6],no binding
